Source: US20260224723A1, “ANTI-B7H3 ANTIBODY-DRUG CONJUGATE AND USE THEREOF” (Duality Biologics (Suzhou) Co., Ltd., priority 2022, published 2026)

What was measured:
cynomolgus monkey B7H3 [1] = test: SPR binding affinity for cynomolgus monkey B7H3 (Biacore 8K); details: analyte cynomolgus monkey B7H3
Experimental: The affinity of antibodies for cynomolgus monkey B7H3 was determined using surface plasmon resonance (SPR). The affinity of antibodies for cynomolgus monkey B7H3 was determined by Biacore 8K. An activator was prepared by mixing 400 mM EDC and 100 mM NHS (GE) immediately prior to injection into the channel. The CM5 sensor chip was activated for 420 seconds with the activator. Goat anti-human Fe IgG (30 μg/mL in 10 mM NaAc, pH 4.5) was then injected into the channel at a flow rate of 10 μL/min for 420 seconds. The chip was deactivated by 1 M ethanolamine hydrochloric acid. The antibodies diluted in running buffer (1×HBS-EP+) were injected into the channel at a flow rate of 10 μL/min for 30 seconds. […] Glycine (10 mM, pH 1.5) was injected as regeneration buffer after the dissociation phase.
The sensorgrams for the reference channel and the buffer channel were subtracted from the test sensorgrams. The experimental data for 6 analyte concentrations (50 nM, 25 nM, 12.5 nM, 6.25 nM, 3.125 nM, and 1.563 nM) were fitted with a 1:1 binding model. The molecular weight of the cynomolgus monkey B7H3 used in the calculation was 49 kDa.
(§1) The experimental data were fitted by a 1:1 binding model bundled with the Biacore 8K evaluation software.

human 4IgB7H3 = target: T1, human 4IgB7H3 (Homo sapiens, UniProt Q5ZPR3); test: SPR binding affinity for human 4IgB7H3 (Biacore 8K); details: analyte human 4IgB7H3
T1 construct: Uniprot ID: Q5ZPR3, amino acids 29-461; 6xHis (C); made in house; host or cells: Expi293F
T1 sequence (Q5ZPR3 29-461): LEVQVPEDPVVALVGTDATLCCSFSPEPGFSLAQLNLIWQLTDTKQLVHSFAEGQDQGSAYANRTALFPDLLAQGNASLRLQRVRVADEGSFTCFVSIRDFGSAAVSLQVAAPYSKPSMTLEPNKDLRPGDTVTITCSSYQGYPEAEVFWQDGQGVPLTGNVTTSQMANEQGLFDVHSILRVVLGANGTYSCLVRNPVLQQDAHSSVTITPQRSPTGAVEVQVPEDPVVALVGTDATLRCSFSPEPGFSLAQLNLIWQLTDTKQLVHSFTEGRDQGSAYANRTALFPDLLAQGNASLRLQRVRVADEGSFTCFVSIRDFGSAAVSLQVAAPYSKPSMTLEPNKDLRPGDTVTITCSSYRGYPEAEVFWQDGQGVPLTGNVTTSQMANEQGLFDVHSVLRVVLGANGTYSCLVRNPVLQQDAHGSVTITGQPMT
Experimental: The affinity of antibodies for human 4IgB7H3 was determined using surface plasmon resonance (SPR). The affinity of antibodies for human 4IgB7H3 was determined by Biacore 8K. An activator was prepared by mixing 400 mM EDC and 100 mM NHS (GE) immediately prior to injection into the channel. The CM5 sensor chip was activated for 420 seconds with the activator. Goat anti-human Fc IgG (30 μg/mL in 10 mM NaAc, pH 4.5) was then injected into the channel at a flow rate of 10 μL/min for 420 seconds. The chip was deactivated by 1 M ethanolamine hydrochloric acid. The antibodies diluted in running buffer (1×HBS-EP+) were injected into the channel at a flow rate of 10 μL/min for 30 seconds. Seven concentrations (100 nM, 50 nM, 25 nM, 12.5 nM, 6.25 nM, […], and 1.563 nM) of analyte human 4IgB7H3 were injected sequentially into the channel at a flow rate of 30 μL/min for an association phase of 180 seconds, followed by dissociation of 3600 seconds. Glycine (10 mM, pH 1.5) was injected as regeneration buffer after the dissociation phase.
The sensorgrams for the reference channel and the buffer channel were subtracted from the test sensorgrams. The experimental data were fitted with a 1:1 binding model. The molecular weight of the human 4IgB7H3 used in the calculation was 47.8 kDa.
as §1

human 2IgB7H3 = target: T2, human 2IgB7H3 (Homo sapiens, UniProt Q5ZPR3); test: SPR binding affinity for human 2IgB7H3 (Biacore 8K); details: analyte human 2IgB7H3
T2 construct: His tag; purchased ACRO (ACROBiosystems) B73-H52E2
T2 sequence (Q5ZPR3 29-316 isoform Q5ZPR3-2 limits assumed): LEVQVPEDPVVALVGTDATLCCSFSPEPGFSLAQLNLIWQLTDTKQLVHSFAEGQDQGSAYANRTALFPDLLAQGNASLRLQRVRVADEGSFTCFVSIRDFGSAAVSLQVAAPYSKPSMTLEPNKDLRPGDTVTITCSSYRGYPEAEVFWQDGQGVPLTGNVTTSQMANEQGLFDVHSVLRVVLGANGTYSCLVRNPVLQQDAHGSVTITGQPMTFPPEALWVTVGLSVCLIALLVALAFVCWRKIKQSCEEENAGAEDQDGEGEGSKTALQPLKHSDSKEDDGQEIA
Experimental: The affinity of antibodies for human 2IgB7H3 was determined using surface plasmon resonance (SPR). The affinity of antibodies for human 2IgB7H3 was determined by Biacore 8K. An activator was prepared by mixing 400 mM EDC and 100 mM NHS (GE) immediately prior to injection into the channel. The CM5 sensor chip was activated for 420 seconds with the activator. Goat anti-human Fc IgG (30 μg/mL in 10 mM NaAc, pH 4.5) was then injected into the channel at a flow rate of 10 μL/min for 420 seconds. The chip was deactivated by 1 M ethanolamine hydrochloric acid. The antibodies diluted in running buffer (1×HBS-EP+) were injected into the channel at a flow rate of 10 μL/min for 30 seconds. Seven concentrations (500 nM, 250 nM, 125 nM, 62.5 nM, 31.25 nM, 15.625 nM, and 7.813 nM) of analyte human 2IgB7H3 were injected sequentially into the channel at a flow rate of 30 μL/min for an association phase of 120 seconds, followed by dissociation of 300 seconds. Glycine (10 mM, pH 1.5) was injected as regeneration buffer after the dissociation phase.
The sensorgrams for the reference channel and the buffer channel were subtracted from the test sensorgrams. The experimental data were fitted with a 1:1 binding model. The molecular weight of the human 2IgB7H3 used in the calculation was 25.2 kDa.
as §1

[2] = system: MCF-7 cells expressing human full-length B7H3; test: Internalization test (HCS) on MCF-7; format: cell-based; details: MCF-7, HCS
Experimental: Antibody internalization was determined by operetta CLS (PerkinElmer), a high-content imaging and analysis system that can collect and analyze images of samples at high speed and high sensitivity. MCF-7 cells expressing human full-length B7H3 (1.5×10^4 cells/well) were seeded into a 96-well clear bottom black plate pre-coated with 8 μg/mL poly-D-lysine. After incubation in an incubator set to 37° C., 5% CO2 overnight, various concentrations of the antibodies (3.16-fold serially diluted with 1×DPBS/1% BSA from 50 nM to 0.0005 nM) were incubated in a volume of 100 μL/well in a refrigerator set to 4° C. for 2 h. Anti-human B7H3 reference antibody enoblituzumab (MacroGeneics) was used as a positive control. Human IgG1 isotype antibody was used as a negative control. After washing the cells with 1×DPBS/1% BSA, Alexa 647 goat anti-human antibody (diluted in a 1:500 ratio in 1×DPBS/1% BSA) was added. The cells were incubated in a refrigerator set to 4° C. for 1 h in the dark. The cells were then washed once and resuspended in 1×DPBS/1% BSA at 37° C. for 2 h. […] The mean fluorescence intensity (MFI) of the cells was measured and analyzed by operetta CLS. EC50 values were calculated by four-parameter non-linear regression analysis using GraphPad Prism 7 software.

cynomolgus monkey B7H3 [3] = test: FACS binding to cynomolgus monkey B7H3-transfected stable cell pool
Experimental: A cell pool expressing cynomolgus monkey B7H3 was generated. Briefly, FlipinCHO cells were transfected with a pcDNA5/pOG44 expression vector containing full-length cynomolgus monkey B7H3 using Lipofectamine 2000 transfection kit (Invitrogen, 11668027) according to the manufacturer's protocol. At 48 h post-transfection, the cells were subcultured into a selective medium (F12 containing 10% FBS and 600 μg/mL hygromycin B) in a T75 flask. After two or three passages of selection, a cell pool stably and highly expressing cynomolgus monkey B7H3 (WBP3XX088-FlpinCHO.cProl.pool) was obtained by hygromycin B selection and BD FACSMelody™ cell sorting.
FACS was used to detect the binding of antibodies to cynomolgus monkey B7H3. FlpinCHO cells were transfected with cynomolgus monkey B7H3 (W3XX088-FlpinCHO.cProl.pool) (1×10^5 cells/well), and the transfected cells were incubated with various concentrations of antibodies (3.16-fold serially diluted with 1×DPBS/1% BSA from 50 nM to 0.0005 nM) in a volume of 100 μL/well in a refrigerator set to 4° C. for 1 h. Anti-human B7H3 reference antibody enoblituzumab (MacroGeneics) was used as a positive control. […] The mean fluorescence intensity (MFI) of the cells was measured by a flow cytometry and analyzed by FlowJo. EC50 values were calculated by four-parameter non-linear regression analysis using GraphPad Prism 7 software.

human B7H3 = target: T3, human B7H3 (Homo sapiens, UniProt Q5ZPR3); test: FACS binding to human B7H3-expressing cells MCF-7
T3 construct: MCF-7 cells expressing human full-length B7H3; host or cells: MCF-7
T3 sequence (Q5ZPR3 29-534): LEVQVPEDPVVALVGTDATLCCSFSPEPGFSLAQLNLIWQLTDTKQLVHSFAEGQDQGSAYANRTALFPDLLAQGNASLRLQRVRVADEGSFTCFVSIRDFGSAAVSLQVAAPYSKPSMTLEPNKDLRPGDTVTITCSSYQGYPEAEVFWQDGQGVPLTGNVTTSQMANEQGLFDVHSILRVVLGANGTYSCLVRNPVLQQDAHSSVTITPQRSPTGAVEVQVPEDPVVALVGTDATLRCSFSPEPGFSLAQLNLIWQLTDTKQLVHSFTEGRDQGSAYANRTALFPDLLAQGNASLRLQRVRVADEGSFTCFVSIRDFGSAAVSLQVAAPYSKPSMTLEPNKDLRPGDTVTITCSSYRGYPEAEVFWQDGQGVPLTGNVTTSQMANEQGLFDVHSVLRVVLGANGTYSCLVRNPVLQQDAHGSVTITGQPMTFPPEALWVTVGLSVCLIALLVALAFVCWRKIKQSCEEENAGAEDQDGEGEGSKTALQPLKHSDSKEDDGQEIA
Experimental: FACS was used to detect the binding of antibodies to human B7H3. This method allows quantitative analysis and identification of specific molecules expressed on the surface of living cells. Unlabeled cells were used as a control to set a threshold before the assay, and the percentage change for each group that exceeded the fluorescence intensity threshold was analyzed. MCF-7 cells expressing human full-length B7H3 (1×10^5 cells/well) were incubated with various concentrations of antibodies (3.16-fold serially diluted with 1×DPBS/1% BSA from 50 nM to 0.0005 nM) in a volume of 100 μL/well in a refrigerator set to 4° C. for 1 h. Anti-human B7H3 reference antibody enoblituzumab (MacroGeneics) was used as a positive control. Human IgG1 isotype antibody was used as a negative control. After washing the cells with 1×DPBS/1% BSA, Alexa 647 goat anti-human antibody (diluted in a 1:500 ratio in 1×DPBS/1% BSA) was added. The cells were incubated in a refrigerator set to 4° C. for 0.5 h in the dark. The mean fluorescence intensity (MFI) of the cells was measured by a flow cytometry and analyzed by FlowJo. EC50 values were calculated by four-parameter non-linear regression analysis using GraphPad Prism 7 software.

ka (cynomolgus monkey B7H3 [1]): 185000 M⁻¹ s⁻¹
kd (cynomolgus monkey B7H3 [1]): 8.14e-05 s⁻¹
ka (human 4IgB7H3): 124000 M⁻¹ s⁻¹
kd (human 4IgB7H3): 0.000126 s⁻¹
ka (human 2IgB7H3): 64400 M⁻¹ s⁻¹
kd (human 2IgB7H3): 0.0168 s⁻¹
Maximum MFI (human B7H3): 4644
B1: Enoblituzumab (MacroGenics): anti-B7H3 benchmark antibody, sequences SEQ ID NOs: 117 and 119 of US20120294796A1 (antibody, chains of the INN, looked up)
heavy: EVQLVESGGGLVQPGGSLRLSCAASGFTFSSFGMHWVRQAPGKGLEWVAYISSDSSAIYYADTVKGRFTISRDNAKNSLYLQMNSLRDEDTAVYYCGRGRENIYYGSRLDYWGQGTTVTVSSASTKGPSVFPLAPSSKSTSGGTAALGCLVKDYFPEPVTVSWNSGALTSGVHTFPAVLQSSGLYSLSSVVTVPSSSLGTQTYICNVNHKPSNTKVDKRVEPKSCDKTHTCPPCPAPELVGGPSVFLLPPKPKDTLMISRTPEVTCVVVDVSHEDPEVKFNWYVDGVEVHNAKTKPPEEQYNSTLRVVSVLTVLHQDWLNGKEYKCKVSNKALPAPIEKTISKAKGQPREPQVYTLPPSREEMTKNQVSLTCLVKGFYPSDIAVEWESNGQPENNYKTTPLVLDSDGSFFLYSKLTVDKSRWQQGNVFSCSVMHEALHNHYTQKSLSLSPG
light: DIQLTQSPSFLSASVGDRVTITCKASQNVDTNVAWYQQKPGKAPKALIYSASYRYSGVPSRFSGSGSGTDFTLTISSLQPEDFATYYCQQYNNYPFTFGQGTKLEIKRTVAAPSVFIFPPSDEQLKSGTASVVCLLNNFYPREAKVQWKVDNALQSGNSQESVTEQDSKDSTYSLSSTLTLSKADYEKHKVYACEVTHQGLSSPVTKSFNRGEC
Antibody internalization Maximum MFI [2]: 39777
Maximum MFI (cynomolgus monkey B7H3 [3]): 19700
